Test results published in publication PMC9813255 (2023).

T1: GST-Atxn1-86Q (UniProt P54253 1-815)
T1 chain: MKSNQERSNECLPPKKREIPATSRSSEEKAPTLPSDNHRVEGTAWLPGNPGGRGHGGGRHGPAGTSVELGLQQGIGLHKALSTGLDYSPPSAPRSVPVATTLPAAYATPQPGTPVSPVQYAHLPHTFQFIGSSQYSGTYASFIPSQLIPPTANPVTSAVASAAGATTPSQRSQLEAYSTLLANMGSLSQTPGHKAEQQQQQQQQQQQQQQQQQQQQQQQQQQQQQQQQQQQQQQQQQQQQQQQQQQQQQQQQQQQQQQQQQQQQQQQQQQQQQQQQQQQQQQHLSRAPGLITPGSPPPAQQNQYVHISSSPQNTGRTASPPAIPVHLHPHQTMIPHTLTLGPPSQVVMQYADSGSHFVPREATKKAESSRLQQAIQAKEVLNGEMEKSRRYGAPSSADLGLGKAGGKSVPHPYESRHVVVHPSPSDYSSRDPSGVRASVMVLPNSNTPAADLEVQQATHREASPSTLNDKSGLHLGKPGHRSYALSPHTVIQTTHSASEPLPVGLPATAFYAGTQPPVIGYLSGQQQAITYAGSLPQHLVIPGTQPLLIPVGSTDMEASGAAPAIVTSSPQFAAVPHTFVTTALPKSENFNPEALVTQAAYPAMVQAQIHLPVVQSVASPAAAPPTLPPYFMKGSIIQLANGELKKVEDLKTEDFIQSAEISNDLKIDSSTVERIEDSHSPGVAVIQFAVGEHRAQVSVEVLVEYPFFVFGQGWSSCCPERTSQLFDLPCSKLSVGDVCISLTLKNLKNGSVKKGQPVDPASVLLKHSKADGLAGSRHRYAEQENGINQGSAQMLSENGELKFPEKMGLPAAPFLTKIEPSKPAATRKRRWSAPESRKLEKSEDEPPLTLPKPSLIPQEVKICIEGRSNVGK

T2: GST-Atxn1-33Q (UniProt P54253 1-815)
T2 chain: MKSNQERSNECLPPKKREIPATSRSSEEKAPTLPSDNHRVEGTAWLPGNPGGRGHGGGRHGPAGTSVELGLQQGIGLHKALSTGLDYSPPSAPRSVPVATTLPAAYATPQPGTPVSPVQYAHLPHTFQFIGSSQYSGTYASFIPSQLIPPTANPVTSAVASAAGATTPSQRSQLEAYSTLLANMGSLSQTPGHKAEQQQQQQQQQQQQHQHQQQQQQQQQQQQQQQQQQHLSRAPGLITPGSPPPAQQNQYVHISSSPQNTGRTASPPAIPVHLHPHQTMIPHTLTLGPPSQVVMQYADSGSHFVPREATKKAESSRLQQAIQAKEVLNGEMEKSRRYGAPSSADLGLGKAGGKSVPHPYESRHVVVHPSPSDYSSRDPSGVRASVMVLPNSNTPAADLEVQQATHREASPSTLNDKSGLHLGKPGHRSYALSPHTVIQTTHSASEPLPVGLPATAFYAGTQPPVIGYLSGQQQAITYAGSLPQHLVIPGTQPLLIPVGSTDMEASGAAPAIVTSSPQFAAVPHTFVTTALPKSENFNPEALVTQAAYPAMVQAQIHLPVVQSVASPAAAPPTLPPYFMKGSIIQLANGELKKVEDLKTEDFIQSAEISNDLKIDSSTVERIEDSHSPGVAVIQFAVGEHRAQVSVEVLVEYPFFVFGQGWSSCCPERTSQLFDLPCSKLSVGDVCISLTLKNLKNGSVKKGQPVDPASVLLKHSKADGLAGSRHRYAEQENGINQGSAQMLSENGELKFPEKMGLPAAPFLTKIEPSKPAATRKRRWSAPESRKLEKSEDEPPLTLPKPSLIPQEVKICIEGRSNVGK

B1: full-length human PQBP5 (His-tag fusion protein) (natural protein)
chain: MQVSSLNEVKIYSLSCGKSLPEWLSDRKKRALQKKDVDVRRRIELIQDFEMPTVCTTIKVSKDGQYILATGTYKPRVRCYDTYQLSLKFERCLDSEVVTFEILSDDYSKIVFLHNDRYIEFHSQSGFYYKTRIPKFGRDFSYHYPSCDLYFVGASSEVYRLNLEQGRYLNPLQTDAAENNVCDINSVHGLFATGTIEGRVECWDPRTRNRVGLLDCALNSVTADSEINSLPTISALKFNGALTMAVGTTTGQVLLYDLRSDKPLLVKDHQYGLPIKSVHFQDSLDLILSADSRIVKMWNKNSGKIFTSLEPEHDLNDVCLYPNSGMLLTANETPKMGIYYIPVLGPAPRWCSFLDNLTEELEENPESTVYDDYKFVTKKDLENLGLTHLIGSPFLRAYMHGFFMDIRLYHKVKLMVNPFAYEEYRKDKIRQKIEETRAQRVQLKKLPKVNKELALKLIEEEEEKQKSTWKKKVKSLPNILTDDRFKVMFENPDFQVDEESEEFRLLNPLVSKISEKRKKKLRLLEQQELREKEEEEEPEGKPSDAESSESSDDEKAWVEEVRKQRRLLQQEEKVKRQERLKEDQQTVLKPQFYEIKAGEEFRSFKDSATKQKLMNKTLEDRLKIEAKNGTLSVSDTTVGSKQLTFTLKRSEQQKKQQEAEKLHRQERKRLRRSAGHLKSRHKRGRSFH
B2: human fibrillarin (His-tag fusion protein) (natural protein)
chain: MKPGFSPRGGGFGGRGGFGDRGGRGGRGGFGGGRGRGGGFRGRGRGGGGGGGGGGGGGRGGGGFHSGGNRGRGRGGKRGNQSGKNVMVEPHRHEGVFICRGKEDALVTKNLVPGESVYGEKRVSISEGDDKIEYRAWNPFRSKLAAAILGGVDQIHIKPGAKVLYLGAASGTTVSHVSDIVGPDGLVYAVEFSHRSGRDLINLAKKRTNIIPVIEDARHPHKYRMLIAMVDVIFADVAQPDQTRIVALNAHTFLRNGGHFVISIKANCIDSTASAEAVFASEVKKMQQENMKPQEQLTLEPYERDHAVVVGVYRPPPKVKN

Assays:
[1] = biological target: T1, GST-Atxn1-86Q; assay: SPR
[2] = biological target: T2, GST-Atxn1-33Q; assay: SPR
[3] = biological target: T3, human nucleolin (His-tag fusion protein) (human, UniProt P19338 1-710); assay: SPR; PQBP5 analyte, nucleolin immobilized
[4] = biological target: B2; assay: SPR; PQBP5 analyte, fibrillarin immobilized
[5] = biological target: B1; assay: SPR; fibrillarin analyte, PQBP5 immobilized
[6] = biological target: T3, human nucleolin (His-tag fusion protein); assay: SPR; fibrillarin analyte, nucleolin immobilized

T3 sequence (P19338 whole entry, the tested form may be a part): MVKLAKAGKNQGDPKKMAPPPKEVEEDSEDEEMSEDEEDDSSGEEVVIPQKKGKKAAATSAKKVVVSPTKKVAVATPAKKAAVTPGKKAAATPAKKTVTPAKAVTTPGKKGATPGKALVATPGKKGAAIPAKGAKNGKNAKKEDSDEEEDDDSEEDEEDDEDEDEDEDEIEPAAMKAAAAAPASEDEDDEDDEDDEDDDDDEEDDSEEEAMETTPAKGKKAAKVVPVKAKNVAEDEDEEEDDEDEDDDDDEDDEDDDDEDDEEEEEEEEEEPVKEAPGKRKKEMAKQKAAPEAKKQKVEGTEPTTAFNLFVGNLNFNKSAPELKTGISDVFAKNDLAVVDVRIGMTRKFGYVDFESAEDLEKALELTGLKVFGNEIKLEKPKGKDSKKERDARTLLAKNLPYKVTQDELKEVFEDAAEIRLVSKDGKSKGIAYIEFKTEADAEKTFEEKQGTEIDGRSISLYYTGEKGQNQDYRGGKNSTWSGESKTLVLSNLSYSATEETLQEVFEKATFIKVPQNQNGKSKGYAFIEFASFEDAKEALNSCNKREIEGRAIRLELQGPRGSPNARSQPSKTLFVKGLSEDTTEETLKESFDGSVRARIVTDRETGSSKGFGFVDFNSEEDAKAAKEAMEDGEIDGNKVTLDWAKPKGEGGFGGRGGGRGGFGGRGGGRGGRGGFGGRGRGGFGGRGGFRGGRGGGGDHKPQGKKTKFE

| Binder | Kd [1] [nM] | Kd [2] [nM] | Kd [3] [nM] | Kd [4] [nM] | Kd [5] [nM] | Kd [6] [nM] |
| --- | --- | --- | --- | --- | --- | --- |
| B1 | 0.179 | 0.342 | 0.447 | 745 | – | – |
| B2 | – | – | – | – | 10 | 2.78 |
